The text below walks through data of patent publication US20170037425A1, “METHOD FOR IMPROVING PLANT TRAIT” (SHANGHAI INSTITUTES FOR BIOLOGICAL SCIENCES, CHINESE …, priority 2012, published 2017).

B1: scubGFP: green fluorescent protein from Scolymia cubensis (AY037767), SEQ ID NO: 40 (protein, listed as Echinopora forskaliana)
chain: MQRAGMKVKEHMKIKLRMGGTVNGKHFAVNGTGDGYPYQGKQILKLIVEGSEPLPFAFDILSAAFQYGNRAFTEYPTEIADYFKQSFEFGEGFSWERSFTFEDGAICVATNDITMVGGEFQYDIRFDGLNFPEDGPVMQKKTVKWEPSTEIMYMQNGVLKGEVNMALLLQDKSHYRCDLKTTYKAKNNVPHPPGYHYVDHCIEILEERKDHVKLREHAKARSSLSPTSAKERKA
B2: phiYFP: yellow fluorescent protein from Phialidium sp. SL-2003 (AY485333), SEQ ID NO: 50 (protein)
chain: MSSGALLFHGKIPYVVEMEGNVDGHTFSIRGKGYGDASVGKVDAQFICTTGDVPVPWSTLVTTLTYGAQCFAKYGPELKDFYKSCMPEGYVQERTITFEGDGVFKTRAEVTFENGSVYNRVKLNGQGFKKDGHVLGKNLEFNFTPHCLYIWGDQANHGLKSAFKIMHEITGSKEDFIVADHTQMNTPIGGGPVHVPEYHHITYHVTLSKDVTDHRDNMSLVETVRAVDCRKTYL
modifications: Aequorea Victoria
B3: rmueGFP: green fluorescent protein from Renilla muelleri (AY015996), SEQ ID NO: 44 (protein, listed as Renilla muelleri)
chain: MSKQILKNTCLQEVMSYKVNLEGIVNNHVFTMEGCGKGNILFGNQLVQIRVTKGAPLPFAFDIVSPAFQYGNRTFTKYPNDISDYFIQSFPAGFMYERTLRYEDGGLVEIRSDINLIEDKFVYRVEYKGSNFPDDGPVMQKTILGIEPSFEAMYMNNGVLVGEVILVYKLNSGKYYSCHMKTLMKSKGVVKEFPSYHFIQHRLEKTYVEDGGFVEQHETAIAQMTSIGKPLGSLHEWV
B4: efofCP/RFP: protein from Echinopora forskaliana (EU498726), SEQ ID NO: 34 (protein, listed as Echinopora forskaliana)
chain: MSVIKQVMKTKLHLEGTVNGHDFTIEGKGEGKPYEGLQHMKMTVTKGAPLPFSVHILTPSHMYGSKPFNKYPADIPDYHKQSFPEGMSWERSMIFEDGGVCTASNHSSINLQENCFIYDVKFHGVNLPPDGPVMQKTIAGWEPSVETLYVRDGMLKSDTAMVFKLKGGGHHRVDFKTTYKAKKPVKLPEFHFVEHRLELTKHDKDFTTWDQQEAAEGHFSPLPKALP
B5: rfloRFP: red fluorescent protein from Ricordea florida (AY037773), SEQ ID NO: 42 (protein, listed as Ricordea florida)
chain: MSALKEEMKIKLTLVGVVNGHPFKIIGDGKGKPYEGSQELTLAVVEGGPLPFSYDILTTIVHYGNRAFVNYPKDIPDIFKQTCSGPGAGYSWQRTMSFEDGGVCTATSHIRVDGDTFNYDIHFMGADFPLNGPVMQKRTVKWEPSTEIMFQCDGLLRGDVAMSLLLKGGGHYRCDFKTIYKPKKNVKMPGYHFVDHCIEITSQQDDYNVVELYEGAVAHYSPLQKPCQAKA
B6: efasCFP: cyan fluorescent protein from Eusmilia fastigiata (DQ206397), SEQ ID NO: 36 (protein, listed as Echinopora forskaliana)
chain: MSFSKQVLNDVTMTYFMEGSVNGHDFTIEGEGTGKPYEGHQRFNLRVTKGAPLPFAVDILSAAFAYGNRCFTKYPKEIPDFFKQSLPEDMSWERTMTFEDGGIVAISAHIRLIGNRFEHKSKFVGVNFPADGPVMQRKTLGWEPSSEKMTPRDGILKGYVPSFLVLQGGGNYRCDYDTSYRAMKPVEMPGGHFIQHRIVRRDIKKDSNGNTWQIQEDAFAHNSEVPDSA
B7: cpGFP: green fluorescent protein from Chiridius poppei (AB185173), SEQ ID NO: 52 (protein, listed as Chiridius poppei)
chain: MTTFKIESRIHGNLNGEKFELVGGGVGEEGRLEIEMKTKDKPLAFSPFLLSHCMGYGFYHFASFPKGTKNIYLHAATNGGYTNTRKEIYEDGGILEVNFRYTYEFNKIIGDVECIGHGFPSQSPIFKDTIVKSCPTVDLMLPMSGNIIASSYARAFQLKDGSFYTAEVKNNIDFKNPIHESFSKSGPMFTHRRVEETHTKENLAMVEYQQVFNSAPRDM
B8: spisCP: non-fluorescent chromoprotein from Stylophora pistillata (DQ206398), SEQ ID NO: 38 (protein, listed as Echinopora forskaliana)
chain: MSHSKQALADTMKMTWLMEGSVNGHAFTIEGEGTGKPYEGKQSGTFRVTKGGPLPFAFDIVAPTLKYGFKCFMKYPADIPDYFKLAFPEGLTYDRKIAFEDGGCATATVEMSLKGNTLVHKTNFQGGNFPIDGPVMQKRTLGWEPTSEKMTPCDGIIKGDTIMYLMVEGGKTLKCRYENNYRANKPVLMPPSHFVDLRLTRTNLDKEGLAFKLEEYAVARVLEV
B9: anm2CP: chromoprotein from Anthomedusae sp. SL-2003 (AY485336), SEQ ID NO: 48 (protein, listed as Anthomedusae sp.)
chain: MEGGPALFQSDMTFKIFIDGVVNDQKFTIIADGSSKFPHGDFNVHAVCETGKLPMSWKPICHLIQYGEPFFAKYPNGISHFAQECFPEGLTIDRTVRFENDGTMTSHHTYELDGTCVISRITVNCDGFQPDGPIMKDQLVDILPTETHMFPHGSNAVRQLCYIGFTTADGGLMMSHFDSKLTFNGSRAIKIPGPHFVTVIIKQMKDTSDKRDHVCQREVTYAHSVPRITSAI
B10: hcriCP: chromoprotein from Heteractis crispa (AF363776), SEQ ID NO: 32 (protein)
chain: MAGLLKESMRIKMYMEGTVNGHYFKCEGEGDGNPFTGTQSMRIHVTEGAPLPFAFDILAPCCEYGSRTFVHHTAEIPDFFKQSFPEGFTWERTTTYEDGGILTAHQDTSLEGNCLIYKVKVLGTNFPADGPVMKNKSGGWEPCTEVVYPENGVLCGRNVMALKVGDRRLICHLYTSYRSKKAVRALTMPGFHFTDIRLQMPRKKKDEYFELYEASVARYSDLPEKAN
modifications: Entacmaea quadricolor
B11: ceriantRFP: red fluorescent protein from Cerianthus sp. DW-2003 (AY296063), SEQ ID NO: 46 (protein, listed as Cerianthus sp.)
chain: MNLSKNVSVSVYMKGNVNNHEFEYDGEGGGDPYTGKYSMKMTLRGQNCLPFSYDIITTAFQYGFRVFTKYPEGIVDYFKDSLPDAFQWNRRIVFEDGGVLNMSSDITYKDNVLHGDVWAVGVNFPPNGPVMKNEIVMEEPTEETFTPKNGVLVGFCPKAYLLKDGSYYYGNMTTFYRSKKSGQAPPGYHFVKHRLVKTNVGHGFKTVEQTEYATAHVSDLPK

A short description of the test: In vitro H2O hydrolysis and oxygen evolution catalyzed by LEAT protein under light. The format is biochemical. Set-up: key to O2 evolution activity: +: similar O2 evolution activity as that of YFP; ++: higher O2 evolution activity than that of YFP by at least one order of magnitude; weak: lower activity than that of YFP by at least one order of magnitude. Conditions: water hydrolysis and O2 evolution under light, relative to YFP. On the procedure: 1.85 ml of 50 mM phosphate buffer (pH6.5) was added in the reaction vessel of Clark-type oxygen electrode, then LEAT proteins (at a final concentration of 0.02-1 μg/ml) and 400 μM 2,3,5-trimethyl-1,4-benzoquinone (TMBQ) or other quinones were sequentially added into the buffer in dark. The oxygen evolution rate was measured under the light with corresponding excitation wave length for LEAT proteins and light intensity at 1-2 μmol m^−2 s^−1.
B1: the O2 evolution activity entry is on record as “+”.

As for B2, the O2 evolution activity entry was “++”.

On to B3, for which the O2 evolution activity result was “++”.

Regarding B4, the O2 evolution activity result is given as “+”.

As for B5, the O2 evolution activity result was “++”.

In the case of B6, the O2 evolution activity result is on record as “+”.

For the molecule B7, the O2 evolution activity entry is “+”.

Regarding B8, the O2 evolution activity entry is “++”.

On to B9, for which the O2 evolution activity result is recorded as “+”.

With B10, the O2 evolution activity entry is reported as “+”.

Regarding B11, the O2 evolution activity result is “++”.
